# Substitutions are numbered along the chain they refer to.
# T1: FOXM1B DBD WT (GST fusion) (UniProt Q08050-2 235-327)
# T1 sequence: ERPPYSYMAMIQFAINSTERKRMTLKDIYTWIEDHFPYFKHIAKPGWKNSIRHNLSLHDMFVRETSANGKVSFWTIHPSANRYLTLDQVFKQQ
# T2: FOXM1 DBD WT (GST fusion) (UniProt Q08050 235-327)
# T2 sequence: T1 sequence with Q92P, Q93L
# T3: FOXM1 DBD H287A (UniProt Q08050 235-327, H287A)
# T3 sequence: T1 sequence with H53A, Q92P, Q93L
# T4: FOXM1 DBD S290A (UniProt Q08050 235-327, S290A)
# T4 sequence: T1 sequence with S56A, Q92P, Q93L
# T5: FOXM1 DBD R286A (UniProt Q08050 235-327, R286A)
# T5 sequence: T1 sequence with R52A, Q92P, Q93L
# B1: FKH consensus 16-mer (dsDNA)
# DNA 1: AAACAAACAAACAATC
# DNA 2: GATTGTTTGTTTGTTT
# B2: MYC P2 TATA box 16-mer (dsDNA)
# DNA 1: TGAGTATAAAAGCCGG
# DNA 2: CCGGCTTTTATACTCA
# B3: HP1BP3 16-mer (dsDNA)
# DNA 1: CCTCAGCCAATCGGGG
# DNA 2: CCCCGATTGGCTGAGG
# B4: CCNB2 16-mer (dsDNA)
# DNA 1: ACGCGGTATTTGAATC
# DNA 2: GATTCAAATACCGCGT
# Key:
# Conditions in all cases: protein: recombinant; tags: GST; label: 5' 6FAM on top strand; blunt
# [1] = biological target: T1, FOXM1B DBD WT (GST fusion); assay: EMSA; FP: 50 mM Tris-HCl pH 7.5, 5 mM MgCl2, 1 mM DTT, 2% glycerol; protein 80 nM-5 uM; temperature not stated
# [2] = biological target: T1, FOXM1B DBD WT (GST fusion); assay: fluorescence polarization; FP: 50 mM Tris-HCl pH 7.5, 5 mM MgCl2, 1 mM DTT, 2% glycerol; protein 80 nM-5 uM; temperature not stated
# [3] = biological target: T2, FOXM1 DBD WT (GST fusion); assay: as above
# FOXM1 DBD H287A = biological target: T3, FOXM1 DBD H287A; assay: as above
# FOXM1 DBD S290A = biological target: T4, FOXM1 DBD S290A; assay: fluorescence polarization; up to 5 uM protein; FP: 50 mM Tris-HCl pH 7.5, 5 mM MgCl2, 1 mM DTT, 2% glycerol; protein 80 nM-5 uM; temperature not stated
# FOXM1 DBD R286A = biological target: T5, FOXM1 DBD R286A; assay: as above
Binder,Kd [1] [nM],Kd [2] [nM],Kd [3] [nM],Kd (FOXM1 DBD H287A) [nM],binding result (FOXM1 DBD S290A),binding result (FOXM1 DBD R286A)
B1,346 ± 24,224 ± 45,1100 ± 20,3040 ± 100,no binding,no binding
B2,,177 ± 79,,,,
B3,,489 ± 233,,,,
B4,,436 ± 147,,,,
